Test results reported in US20110117206A1, “PHOSPHOPEPTIDES AND USE OF THE SAME” (PLANT BIOSCIENCE LIMITED, priority 2008, published 2011).
Ends that are not written are not given here.

Experiments:
[1] = Fetuin A / casein phosphopeptide mixed nanoclusters, dynamic light scattering; format: physicochemical; details: 66.4 mg ml^−1, Mg-free Buffer A, urea/urease method
Experimental: Fetuin A was purchased from Sigma Aldrich as product no. F3004. […] The inventors determined the precipitation problem was much reduced at lower fetuin A concentrations so an approach was adopted in which mixed nanoclusters were prepared with casein phosphopeptides and a variable concentration of the fetuin A to recover the size of the fetuin nanoclusters by an extrapolation procedure from lower concentrations. The casein phosphopeptide mixture was supplied by Arla Ltd, Denmark as product Lacprodan 2090 (Na salt). […] The intensity weighted normalised distribution curves calculated by Laplace transformation of the correlation functions of the 6 samples, offset vertically for clarity (FIG. 18a) indicate a nanocluster peak of about 6 nm in accordance with previous work, but as the fetuin A concentration increased, a second peak became increasingly important at larger size. […] Although difficult to estimate exactly, on the basis of scattering by homogeneous spherical particles, the weight fraction of aggregated material in these experiments was calculated to be less than 1% in all cases. […]

[2] = SAXS of free OPN and OPN 1-149 (Guinier, worm-like chain model); format: physicochemical
Experimental: In a SAXS experiment, wherein measurements were made on station 2.1 at the CCLRC Daresbury Laboratory, the normalised scattered intensity I(q) was measured. For a dispersion of isotropic, monodisperse particles, I(q) is related to the inter-particle structure factor, S(q) and the particle scattering factor P(q) by
where N is the number of particles of mean excess scattering length density over the solvent Δ ρp, volume Vp and mass M. The scattering wave vector is q=4π sin θ/λo, where θ is half the scattering angle and λo is the wavelength of the X-rays. In a dilute solution where S(q)=1 and a fraction α′ of the peptide chains have formed a polydisperse distribution of nanoclusters, equation (22) becomes
The molar volumes of the unphosphorylated residues were taken from Jacrot and Zaccai (Jacrot, B. & Zaccai, G. (1981). Determination of Molecular-Weight by Neutron-Scattering. Biopolymers 20, 2413-2426). The molar volume of ortho-L-phosphoserine was calculated from the unit cell volume of the amino acid, as determined by Sundaralingam (Sundaralingam, M. & Putkey, E. F. (1970). Molecular structures of amino acids and peptides. II. A redetermination of the crystal structure of L-O-serine phosphate. A very short phosphate-carboxyl hydrogen bond. Acta Crystallographica B26, 790-800) and 11 Å^3 subtracted to give the residue volume of 168.7 Å^3. The difference in residue volumes of serine and phosphoserine was then used to calculate a residue volume for phosphothreonine of 191.7 Å^3. The X-ray forward scattering amplitudes of the residues were calculated from the elemental compositions using atomic scattering factors. For OPN 16P 1-149 and OPN 28P 1-262, the scattering length densities in units of […] were calculated to be 12.56 and 12.48, respectively. For the nanoclusters prepared with OPN 16P 1-149 it was assumed that the phosphate moieties of the 10 phosphorylated residues found in the three PCs, were assigned to the core, giving ρshell=12.40×10^10 cm^−2. For the core, a hydrated CaP with the composition given by equation (2) gave ρcore=19.1×10^10 cm^−2. Radii of gyration of the whole protein and N-terminal polypeptide were independent of concentration in the range 5-15 mg ml^−1. For OPN the average of three determinations by the Guinier method was 5.50±0.17 nm and the corresponding value for OPN 1-149 was 2.17±0.24 nm. For OPN with 262 residues, equation (28) predicts a radius of gyration of 5.38 nm and for the N-terminal plasmin peptide of 149 residues, the predicted value is 3.84 nm.
Random-coil behavior and the dimensions of chemically unfolded proteins. Proceedings of the National Academy of Sciences of the United States of America 101, 12491-12496). […]

[3] = Ca2+ binding isotherm (Ca ion selective electrode) fitted with semi-empirical binding model; details: from isotherm fit
Text: To model the chemical species in the OPN 1-149 nanocluster solution requires the calculation of Ca ion binding to the free peptide at any pH in the range 5.0-8.0. A semi-empirical model was used to describe the binding isotherms obtained previously for the β-casein 1-25 phosphopeptide in this pH range and the same model was adapted to fit the binding isotherm of OPN 1-149 measured at pH 7.0. The rescaled model was then used to predict binding at any other value of the pH. Binding of Ca ions to the β-casein 1-25 peptide is predominantly to 4 phosphorylated residues and, to a lesser extent, to 7 Glu residues and the C-terminus.
Fitting of the experimental isotherms was done to an equation of the form
where the summation is over all binding sites with Ca ion association constants Ka,i. The function Ni(pH) describes the number of sites of type i as a function of pH and φi is the degree of phosphorylation. It was assumed, that all the phosphorylated sites had the average degree of phosphorylation φ. The number of dianionic phosphoseryl sites at a given pH is given by
The binding behaviour of β-casein has shown that one Ca ion is bound much more strongly than the rest, so the model for binding to the phosphate dianionic groups allowed for two pKs and two Ca ion association constants. The phosphorylated sites have a reduced affinity for Ca ions when they become protonated and were treated as having the same low affinity as the carboxyl groups. […]
The Ca^2+ binding isotherm of peptides recovered from fraction F3a was determined by measuring the concentration of free Ca ions with a Ca ion selective electrode after successive small additions of a stock solution of 100 mM Ca(NO3)2 to a solution containing 25 mg ml^−1 of F3a, buffered to pH 7.0 with 20 mM P, and 50 mM KNO3. […] The calculated OPN 1-149 isotherm was obtained by a separate fitting of the single isotherm employing a model with two pKs and association constants but keeping as many as possible of the constants from the casein model.

Substance: Fetuin A: purchased from Sigma Aldrich, product no. F3004, purity about 80-90%
- nanocluster preparation with fetuin A alone [1]: a fraction of the product precipitated

Substance: OPN: full length native bovine milk osteopontin, gel filtration fraction F2
- Kuhn length from the worm-like chain model ([2]; fit of SAXS): 1.74±0.14 nm
- radius of gyration by the Guinier method ([2]; free peptide, 5-15 mg ml^−1, average of three determinations): 5.50±0.17 nm
- Kuhn segment length b from equation (24) ([2]; from radius of gyration): 1.9 nm

Substance: β-casein 1-25: 25 residue N-terminal bovine β-casein tryptic phosphopeptide (RELEELNVPGEIVESLSSSEESITR; also: phosphopeptide (4P), sites not given here; UniProt P02666 16-40, looked up, fragment)
- effective pK of the isolated Pse residue [3]: 6.0
- pK of the cluster of three Pse residues [3]: 7.2
